Data from US8853149.

Target: integrins
Assay: cell-based or functional assay

| IC50 (µM), bioactivity of cyclic III peptide analogs [µM] | Binder |
| --- | --- |
| 31 | KLKLKAVVSW (here or on the partner: head-to-tail cyclic; two T1 linkers (NH2CH2CH2N(SO2Me)CH2COOH) join the strands) [cyclic III peptide 7 (KLKLK-T1-AVVSW-T1)] |
| 6 | KLKLKMAVSW (here or on the partner: head-to-tail cyclic; two T1 linkers (NH2CH2CH2N(SO2Me)CH2COOH) join the strands) [cyclic III peptide 6 (KLKLK-T1-MAVSW-T1)] |

The next lines start with the binder.

| Binder | IC50 (µM), bioactivity of cyclic III peptide analogs [µM] |
| --- | --- |
| KLKLKMVVSA (here or on the partner: head-to-tail cyclic; two T1 linkers (NH2CH2CH2N(SO2Me)CH2COOH) join the strands) [cyclic III peptide 3 (KLKLK-T1-MVVSA-T1)] | 57 |
| KLKLKMVASW (here or on the partner: head-to-tail cyclic; two T1 linkers (NH2CH2CH2N(SO2Me)CH2COOH) join the strands) [cyclic III peptide 5 (KLKLK-T1-MVASW-T1)] | 19 |
| KLKLKMVVAW (here or on the partner: head-to-tail cyclic; two T1 linkers (NH2CH2CH2N(SO2Me)CH2COOH) join the strands) [cyclic III peptide 4 (KLKLK-T1-MVVAW-T1)] | 4 |
